The data set in a line: protein stability index of a GFP-peptide fusion (GPS, HEK-293T) (PSI 1-6); higher = more stable. Conditions: parent: NP_006221.1; c terminus: native.
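Further: lentivirally expressed fusion library, cells FACS-sorted into six equal-sized GFP/DsRed ratio bins, PSI computed from sequencing read fractions per bin weighted by bin number.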

For the protein CQPISFSGFGAEDDDLGGLGLGPRQ [POLD2 addRQ], the protein stability index was found to be 4.81.
